Assay: soluble on expression in E. coli; label from the status in PepcDB or PDB records
In the case of “GPGSMSPRTSERILALGVRRLRIRSSSTASSSCNGVVEFSTCGGAGGPSYRPLAAMAMIANIQAVAFTDSRRSVFQNKKTLPSPHGRNITPDAAETKGRALFSDSNSECFPADLDPPSASQLDRILPSLNQLRDEIPSSEYVEELVRRQGVSTDLWSNGEKNNSADDDDE”, the “soluble on expression in E. coli” value is reported as “not soluble”.
For “GPGSMSSIEELKVVRLFRALNTMIQLCHDRGYVIRHPSAIAEAVQNPELYNNEEGLDHDWFLRHFVISPDRAARSIRAKQRGDGSSRSGPRREAKNEEDGGDADKPGEYDVAADEDEALRRAANGEWVCMRNAMRLTCSVDPRRATLASSVLTGAPTNKAPSSAPAVTAEPKDDDGDVPYAVAAAAVDAKSKEKAAKNALMVFFSGSPKLSMKEVHSFREKALKKKASSMIVVTNKIDPGVRMDVQELSGRMDEATGAELLSIQVFEEEALAFNVVRHETVPRHVALTPAEAEAFLAERKLNVAQLPRMQESDPLVQYLGLQRGSIVHITREGKQSGPYSMYRHVI”, the “soluble on expression in E. coli” value was “soluble”.
With “GPGSMSTEDASIAYAKKHKIHHLFELMATKVLLNRPENPFAYLRNLLKDVEESEKNRVPYDPTEVHFNNDVGAAAPAAGNSGGSGAAAPAAALTSAKKEKRTVTLATFGLDRAGKTCALSVLESGEADKKYTPTVGFAPIKFPLDDYNLCVFDLGGAANFRGIWVHYYHDCFGIVYVIDSAASDERVAESLKVLHETLQHPYVKGKPLLVLANKKDLPESRGVGVVPQGFLEEAMGEPGAPHRVLATCAIEDDPVLVEGIEWLLEAVSKEYDTLAKRVAKDSNEVKSEKARQRAARLAAIRGEDR” the “soluble on expression in E. coli” value was “soluble”.
In the case of “GPGSMSTLKEVNGRLNTQPFVSGFSPSSEDARIFNEMFGSNVNVIQWVARMASYYQAERDEILNAGTEKKATEPAKKAAAPAPAAAAAAEEEDDIDLFGETTEEEKAALEAKKAKDAEKKKAKKEVIAKSSILFDIKAWDDTIDLEALAQKLHAIQRDGLIWGDHKLVPVAFGVKKLQQLIVIEDDKVSGDDLEEMVMGFEDEVQSMDIVAWNKI”, the “soluble on expression in E. coli” value is reported as “soluble”.
In the case of “GPGSMSYSGRKLKYFVEDSDGWLRRNQQVAEQFVMAEDDRETKEMLSLLAPRAHFASFWGVVRGLPAAVALQAQEREHLRITWTSGLQPLTSRTFARNGYVHVLDRERMSFIPVLGPWLSSFFQRPVQELLVVREGRVVFRGMGYVWDIGKH”, the “soluble on expression in E. coli” value is reported as “not soluble”.
For “GPGSMSYYDKSSSVGYDERDKELNEELEAMLARTPPHIQRHLQQRIHDGILQRMKEETTRKCWEFVKKYEGCVNSVQPYNIRECLPHRDALNDCAHEINCEDNYQKYRLLYLHGELLKLHEHRTGQKMEALKSRVPDSIRTWKSDYAPKYADMMSEVGAKPFTGEGENLDDE”, the “soluble on expression in E. coli” value was “soluble”.
With “GPGSMTANSKPARFLALAAAKQGTTANVAFNALSVYAKMELSKQTNKMLKVHAATTPLVALIQKRTGIKAAAEAVRQTQTAAKATATVSSYDNSEINPQYIGADIAAKMEQMRKHESYGKIKKDGHTLSAPSTAKFPTAEDSTLRKITISVAVQVLCTGSSNSKWQISGKLEG” the “soluble on expression in E. coli” value was “soluble”.
In the case of “GPGSMTELVPPEAIRFANGEPLCAYHECYRCFDGRDILFRLVNVEKKQWFFYNDTADTIAHVRAVFYPGSVIRPLQRADMHVIPGPTGVADETCSIEVTLDIQPGFTESFIEGEHKGFHLEFRTETAPTKEVVFEYRRPMVPYDKIYRCFKNGNGLLFRLVDERVRQWFFYNDTRDLMMKVSVTFANSAEVRPLGCTALGAPHADTAPESVVYTLLIAPGCTEPFIEGNPVTYTLEFAAEPVDAPVTPVLEEPVQYLHGSPDVAVIPHQTHVFKCFKEHGNGLLFRVVDDVNTIWAFYNDTPDYVMTANMRYPSTSDIRLAPGVQVIADSEREGGFVAAVEVLPLATVPFLVGSPEQYELAFAATPVAPLTPSPTTSPEPSSPPQLADAADAAATVPPALPVPEEAPVYCNSGPDLTVMPNIDEVYKCFKDYGNGLVFRLVDKVQRRWAFYNDTTDIVALVRVQFSPGAHIQPLGHTVLGCDLESGSVLHELRVNPLETALFVEGDVDIFTTKFVAEEIQT”, the “soluble on expression in E. coli” value is reported as “soluble”.
For “GPGSMTIDAVSPLFADISREYGAAFDAAIARNVADALAEDVGSGDQTGRLVPDGAPRRARVIVREDAVLCGVPWFDAVVRAVDPSIEVDWRHREGDRMSADSTVCELRGPARALLTAERNALNFLQLLSGVASATRQYVDRIADTRARILDTRKTLPGLRLAQKYAVRVGGGANQRLALYAGILIKENHIAAAGGVGEALDAAFALNAEVPVQIEVETLDQLRTALAHGARSVLLDNFTLDMMRDAVRVTEGRAVLEVSGGVNFDTVRAIAETGVDRISIGALTKDVRATDYSMRIVE”, the “soluble on expression in E. coli” value was “soluble”.
In the case of “GPGSMVALIDTSCYSADCTLSALVPQHAMKPYRLLVTMELIASLGLKRFCRTVVPPPIGIKELLTYHAEDYILNLGLHSNRSWLWNTEVSKVTFSGDCPPVEGIVEYSLSTVSGSLMAAVLLNSGAVDTAIHWGGGMHHAKCGECSGFCYVNDIVIAIIELLKCHDRVLYVDLDMHHGDGVDEAFCRSRRVFTLSLHKFGESFFPGTGHPRDVGIGNGRHYTMNLAMWDGVDDFYYTTVFERALRSIVKRFNPNVVVLQCGADSLAGDRLGHFNLSSWGHGKCVEEVKKLGLPMLVVGGGGYTLRNVAKLWAYETSILCGKRLPLNTVIPLHRMPLSGWLFEESPQLLVSQDEENKPLPGVNVQRSFRVIIEQIDKHCPNIMTV”, the “soluble on expression in E. coli” value is reported as “not soluble”.
In the case of “GPGSMYPGAVGCPWRRLDACVETSYSWALNVMSTNTSKAAVRQSKLTWDEGELTSARLKNDRNGKKARISASGSFRIRAMILACAPSSLAATPADNLPETASTLSFCEMLFNAGVAPLKTPAISSFEACTDVRVCVEAFKTGMPLFSSADEGASGNFFRYPPAAITTACSAETKLIDQSCFTRTTPFRHMGNAA”, the “soluble on expression in E. coli” value is reported as “not soluble”.
For “GPGSMYRLFSCCKTNELKRLFSHALDASIKNEGVAQQRKRQVLPRRHRKLHKLTIREENEEGLRDFLPPKPVVPAGWKLEHVKGSNRFDLRKSVEIRDCGKEHLHAVAMMEVKEYEGTYRMDNGEREEEEYLFFTLFVQKNRFPGALEFGLTSIDMELVMDSLAIHNNREELEDAYGALSVSTSRNGTSNRIIEKSNLSCRSCRDNRYRGPMLSELDDDFSDEILDYLDERGVNNGFAEYMMAQAHFFEQEEYINWIRLLRQFAQ”, the “soluble on expression in E. coli” value was “not soluble”.
For “GPLGSGMRFMPVQSNFVINHGKLTNQLLQAVAKQTRNGDTQQWFQQEQTTYISRTVNRTLDDYCRSNNSVISKETKGHIFRAVENALQQPLDMNGAQSSIGHFLQSNKYFNQKVDEQCGKRVDPITRFNTQTKMIEQVSQEIFERNFSGFKVSEIKAITQNAILEHVQDTRL”, the “soluble on expression in E. coli” value was “soluble”.
For “GPLGSMTTKQTVSLFIWLPESKQKTLFISTKNHTQFELNNIIFDVTLSTELPDKEPNAIITKRTHPVGKMADEMRKYEKDHPKVLFLESSAIHDMMSSREEINALLIKNNIPIPNSFSVKSKEEVIQLLQSKQLILPFIVKPENAQGTFNAHQMKIVLEQEGIDDIHFPCLCQHYINHNNKIVKVFCIGNTLKWQTRTSLPNVHRCGIKSVDFNNQHLEDILSWPEGVIDKQDIIENSANRFGSKILEDPILLNLTSEAEMRDLAYKVRCALGVQLCGIDFIKENEQGNPLVVDVNVFPSYGGKVDFDWFVEKVALCYTEVAKI”, the “soluble on expression in E. coli” value was “soluble”.
For “GPQLDHVDIDLTDKAAMQDGARTFANYCMGCHSAKFQRYERVATDLGIPADLMMEKLVFTGAKIGDHMDIGMKPADAKTWFGAAPPDLTLVARVRGTDWLYSYLRSFYEDPKRPWGVNNVIFPNVGMPNVLAPLQGRQVIGCKQVQVVEDGKKQFDPLTGTPLTHEACDQLTVVPKTGELNEAQFDEKVKNLVTFLAYSANPNKLASERIG”, the “soluble on expression in E. coli” value was “not soluble”.
In the case of “GSAAPPAKEIPEVLVDPRSRRRYVRGRFLGKGGFAKCFEISDADTKEVFAGKIVPKSLLLKPHQREKMSMEISIHRSLAHQHVVGFHGFFEDNDFVFVVLELCRRRSLLELHKRRKALTEPEARYYLRQIVLGCQYLHRNRVIHRDLKLGNLFLNEDLEVKIGDFGLATKVEYDGERKKTLCGTPNYIAPEVLSKKGHSFEVDVWSIGCIMYTLLVGKPPFETSCLKETYLRIKKNEYSIPKHINPVAASLIQKMLQTDPTARPTINELLNDEFFTSGYIPARLPITCLTIPPRFSIAPSSLDPSNRKPLTVLNK”, the “soluble on expression in E. coli” value is reported as “soluble”.
With “GSAMRSAQVYRWQIPMDAGVVLRDRRLKTRDGLYVCLREGEREGWGEISPLPGFSQETWEEAQSVLLAWVNNWLAGDCELPQMPSVAFGVSCALAELTDTLPQAANYRAAPLCNGDPDDLILKLADMPGEKVAKVKVGLYEAVRDGMVVNLLLEAIPDLHLRLDANRAWTPLKGQQFAKYVNPDYRDRIAFLEEPCKTRDDSRAFARETGIAIAWDESLREPDFAFVAEEGVRAVVIKPTLTGSLEKVREQVQAAHALGLTAVISSSIESSLGLTQLARIAAWLTPDTIPGLDTLDLMQAQQVRRWPGSTLPVVEVDALERLL” the “soluble on expression in E. coli” value was “soluble”.
With “GSDITSLYKKAGSEMNGPRCPVQTVGQWLESIGLPQYENHLMANGFDNVQFMGSNVMEDQDLLEIGILNSGHRQRILQAIQLLPKMRPIGHDGYHPTSVAEWL” the “soluble on expression in E. coli” value was “soluble”.
For “GSEQQDLDDLAQVILSAVTSNTDTSKSARAQALSTALASSLADLLISESSGSSYQTQISALTNILSDCFVTTTGSNNPAFVSRVQTLIAVLSQSSSNAISGATGGSAFAQSQAFQQSA”, the “soluble on expression in E. coli” value was “soluble”.
With “GSFTFSPGQDIQLIPPLINLLMSIEPDVIYAGHDNTKPDTSSSLLTSLNQLGERQLLSVVKWSKSLPGFRNLHIDDQITLIQYSWMSLMVFGLGWRSYKHVSGQMLYFAPDLILNEQRMKESSFYSLCLTMWQIPQEFVKLQVSQEEFLCMKVLLLLNTIPLEGLRSQTQFEEMRSSYIRELIKAIGLRQKGVVSSSQRFYQLTKLLDNLHDLVKQLHLYCLNTFIQSRALSVEFPEMMSEVIAAQLPKILAGMVKPLLFHKK” the “soluble on expression in E. coli” value was “soluble”.
In the case of “GSGVDFYDVAFKVMLVGDSGVGKTCLLVRFKDGAFLAGTFISTVGIDFRNKVLDVDGVKVKLQMWDTAGQERFRSVTHAYYRDAHALLLLYDVTNKASFDNIQAWLTEIHEYAQHDVALMLLGNKVDSAHERVVKREDGEKLAKEYGLPFMETSAKTGLNVDLAFTAIAKELKRRSMKAP”, the “soluble on expression in E. coli” value is reported as “soluble”.
In the case of “GSHMAAELDSLLGQEKERFQVLPGRDKMLYVAAQNERDTLWARQVLARGDYDKNARVINENEENKRISIWLDTYYPQLAYYRIHFDEPRKPVFWLSRQRNTMSKKELEVLSQKLRALMPYADSVNITLMDDVTAAGQAEAGLKQQALPYSRRNHKGGVTFVIQGALDDVEILRARQFVDSYYRTWGGRYVQFAIELKDDWLKGRSFQYGAEGYIKMSPGHWYFPSPL”, the “soluble on expression in E. coli” value is reported as “soluble”.
With “GSHMAKEEIIWESLSVDVGSQGNPGIVEYKGVDTKTGEVLFEREPIPIGTNNMGEFLAIVHGLRYLKERNSRKPIYSNSQTAIKWVKDKKAKSTLVRNEETALIWKLVDEAEEWLNTHTYETPILKWQTDKWGEIKADYGRK” the “soluble on expression in E. coli” value was “soluble”.
With “GSHMARYDSLLQALGNTPLVGLQRLSPRWDDGRDGPHVRLWAKLEDRNPTGSIKDRPAVRMIEQAEADGLLRPGATILEPTSGNTGISLAMAARLKGYRLICVMPENTSVERRQLLELYGAQIIFSAAEGGSNTAVATAKELAATNPSWVMLYQYGNPANTDSHYCGTGPELLADLPEITHFVAGLGTTGTLMGTGRFLREHVANVKIVAAEPRYGEGVYALRNMDEGFVPELYDPEILTARYSVGAVDAVRRTRELVHTEGIFAGISTGAVLHAALGVGAGALAAGERADIALVVADAGWKYLSTGAYAGSLDDAETALEGQLWA” the “soluble on expression in E. coli” value was “soluble”.
For “GSHMETVFTEKAPKPVGPYSQAIKVGNTLYVSGQIPIDPRTNEIVKGDIKVQTRQVLDNIKEIVKAAGFSLSDVAMAFVFLKDMNMFNDFNSVYAEYFKDKPPARVTVEVSRLPKDALIEIAVICSKG”, the “soluble on expression in E. coli” value was “soluble”.

From the DeepSol protein solubility set
